{
  "source": "paper PMC7839234",
  "type_in_all_cases": "cell-based, Homo sapiens",
  "conditions_in_all_cases": "sodium (lithium also drives uptake)",
  "key": {"[1]": {"tested_on": "C[N+](C)(C)C[C@H](O)CC(=O)[O-]", "assay": "radiolabelled uptake kinetics"}, "[2]": {"tested_on": "NCCC(=O)N[C@@H](Cc1cnc[nH]1)C(=O)O", "assay": "radiolabelled uptake kinetics in transfected HEK293 Flp-In cells"}, "[3]": {"tested_on": "C[N+](C)(C)[C@@H](Cc1c[nH]c(=S)[nH]1)C(=O)[O-]", "assay": "radiolabelled uptake kinetics in transfected HEK293 Flp-In cells"}, "CN(CC(=O)O)C(=N)N": {"tested_on": "CN(CC(=O)O)C(=N)N", "assay": "radiolabelled uptake kinetics in transfected HEK293 Flp-In cells"}},
  "data": [
    {"substance": "SLC22A15 (Homo sapiens)", "values": [
      {"measurement": "Km", "setting": "[1]", "result": "99 ± 94", "unit": "µM"},
      {"measurement": "Km", "setting": "[2]", "result": "510 ± 175", "unit": "µM"},
      {"measurement": "Km", "setting": "[3]", "result": "354 ± 95", "unit": "µM"},
      {"measurement": "Km", "setting": "CN(CC(=O)O)C(=N)N", "result": "291 ± 124", "unit": "µM"}
    ]}
  ]
}
